The results in this text go back to US20240239894A1 (AstraZeneca / MedImmune, published 2024).

Assay [1] deals with T1, Murine B7-H4-Fc (Mouse B7H4 ECD, Fc_6His) (mouse, UniProt Q7TSP5 25-257).
T1 construct: extracellular domain; also called mouse B7-H4-Fc; FcHis6 tagged murine B7-H4
T1 sequence (Q7TSP5 whole entry, looked up): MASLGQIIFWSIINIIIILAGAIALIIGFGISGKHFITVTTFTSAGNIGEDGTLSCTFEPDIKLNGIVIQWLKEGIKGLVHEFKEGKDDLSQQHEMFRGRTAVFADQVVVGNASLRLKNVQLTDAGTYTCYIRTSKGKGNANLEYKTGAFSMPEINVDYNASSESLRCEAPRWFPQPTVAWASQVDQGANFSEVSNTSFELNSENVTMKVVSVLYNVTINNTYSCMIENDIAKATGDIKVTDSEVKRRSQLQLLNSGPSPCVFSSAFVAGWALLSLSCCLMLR
In words: HTRF binding, human IgG1. In general terms: Time-resolved FRET reads energy transfer from a long-lived donor to a nearby acceptor.

Assay [2] deals with T2, Murine B7-H4 ECD-Flag-His10 (monomeric) (mouse, UniProt Q7TSP5 25-257).
T2 construct: extracellular domain; also called FlagHis10 murine B7-H4
T2 sequence (looked up): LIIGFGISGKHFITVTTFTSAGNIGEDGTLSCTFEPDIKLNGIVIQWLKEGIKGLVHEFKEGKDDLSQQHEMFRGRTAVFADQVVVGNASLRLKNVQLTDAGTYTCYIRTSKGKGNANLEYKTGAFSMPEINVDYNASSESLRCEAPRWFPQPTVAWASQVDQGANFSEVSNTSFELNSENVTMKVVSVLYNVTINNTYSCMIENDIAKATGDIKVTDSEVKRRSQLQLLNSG
Put plainly: Octet BLI, hIgG1 on Protein G (n = 1). On the technique in general: BLI is a label-free optical method that tracks binding on a fibre tip over time.

Assay [3] concerns the target T3, Human B7H4 ECD (SV), splice variant, 10His_FLAG (human).
T3 construct: also called B7-H4-SV
In words: Octet BLI, hIgG1 on Protein G (n = 1).

Assay [4] deals with T4, Human B7-H4 ECD-Flag-His10 (monomeric) (human, UniProt Q7Z7D3 25-259).
T4 construct: Minimally biotinylated for KinExA; also called hB7H4-ECD-Flag-His10; B7-H4-FLAG
T4 sequence: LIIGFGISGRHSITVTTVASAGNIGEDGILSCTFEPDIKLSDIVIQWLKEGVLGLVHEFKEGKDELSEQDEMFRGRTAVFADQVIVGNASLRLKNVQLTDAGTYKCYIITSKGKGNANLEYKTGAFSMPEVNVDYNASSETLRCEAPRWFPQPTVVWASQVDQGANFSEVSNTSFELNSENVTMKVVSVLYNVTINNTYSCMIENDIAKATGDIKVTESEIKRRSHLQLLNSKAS
Put plainly: Octet BLI, hIgG1 on Protein G (n = 1).

The target in assay [5] is T5, Cyno B7-H4-Fc (Cyno B7H4 ECD, FcTM_6His) (cynomolgus monkey).
T5 construct: extracellular domain; also called cynomolgus B7-H4-Fc
In words: HTRF binding, human IgG1.

Assay [6] deals with T6, Human B7-H4-Fc (Human B7H4 ECD, Fc_6His) (human).
T6 construct: also called FcHis6 tagged human B7-H4
T6 sequence (Q7Z7D3 whole entry, looked up): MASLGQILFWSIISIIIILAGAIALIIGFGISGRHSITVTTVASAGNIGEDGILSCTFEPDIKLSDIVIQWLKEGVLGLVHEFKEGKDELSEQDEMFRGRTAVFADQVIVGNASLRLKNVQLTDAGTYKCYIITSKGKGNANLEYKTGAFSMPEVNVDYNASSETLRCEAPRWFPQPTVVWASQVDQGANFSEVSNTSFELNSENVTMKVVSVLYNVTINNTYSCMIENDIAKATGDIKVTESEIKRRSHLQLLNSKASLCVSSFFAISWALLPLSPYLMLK
In words: HTRF binding, human IgG1.

Usually EC50 stands for the concentration giving half of the maximal effect. Higher therefore signals a need for much substance. What is called Kd is the equilibrium constant for the complex coming apart. High values mean weaker binding, low ones tighter binding. For orientation: koff means the rate constant with which the complex falls apart. The kon is the second-order rate constant of association. A lower kon goes with slower complex formation.

B1: ZY0EO5-E07 human IgG1 (antibody, V domains shown)
VH: QVQLQESGPGLVKPSQTLSLTCTVSGGSISSGGYYWSWIRQHPGKGLEWIGNIYYSGSTYYNPSLKSRVTISVDTSKNQFSLKLSSVTAADTAVYYCAREKALASVIPSGYENYYVVDVWGQGTTVTVSS
VL: DIQLTQSPSFLSASVGGRVTITCWASQGIAGYLAWYQQKPGKAPKLLIYAASTLQSGVPSRFSGSGSGTEFTLTISSLQPEDFATYYCQHLNSYPLTFGGGTKVEIK
notes: also called ZY0E05-E07; E05-E07
Take B1: the figures for the EC50 in assay [1], in assay [5] and in assay [6] were 0.21 nM, 0.18 nM and 0.19 nM, respectively. The Max is 1300 in assay [1], 1360 in assay [5] and 1710 in assay [6]. For the same molecule, the results for the Kd in assay [2], in assay [3] and in assay [4] were 23.2 nM, 182 nM and 14.6 nM, respectively. Further, the koff in assay [2] was 0.000415 s⁻¹; in assay [3], 0.000528 s⁻¹; in assay [4], 0.000318 s⁻¹. Further, the kon was 17900 M⁻¹ s⁻¹ in assay [2], 2910 M⁻¹ s⁻¹ in assay [3] and 21700 M⁻¹ s⁻¹ in assay [4].

B2: ZY0EOB-F05 human IgG1 (antibody, V domains shown)
VH: QVQLQESGPGLVKPSQTLSLTCTVSDGSISSGGYYWSWIRQHPGKGLEWIGNIYYSGSTYYNPSLKSRVTISVDTSKNQFSLKLNSVTAADTAVYYCATEKALATVTPSGYENYYTVDVWGQGTTVTVSS
VL: DIQLTQSPSFLSASVGDRVTITCWASQGISSYLAWYQQKPGKAPKLLIYAASTLQSGVPSRFSGSGSGTEFTLTISSLQPEDFATYYCQHLNSYPLTFGGGTKVEIK
On to B2, for which the EC50 is 0.19 nM in assay [1], 0.14 nM in assay [5] and 0.15 nM in assay [6]. Besides, the Max in assay [1] worked out at 1320; in assay [5], 1480; in assay [6] it was 1820. Moreover, the Kd in assay [2] was found to be 19.8 nM; in assay [3] it was 127 nM; in assay [4] it was 11.7 nM. Besides, the off-rate constant (koff) was 0.000493 s⁻¹ in assay [2], 0.000598 s⁻¹ in assay [3] and 0.000362 s⁻¹ in assay [4]. Also, the kon in assay [2] came out at 24900 M⁻¹ s⁻¹; in assay [3] it was 4710 M⁻¹ s⁻¹; in assay [4], 31000 M⁻¹ s⁻¹.

B3: ZY0EPQ-E02 human IgG1 (antibody, V domains shown)
VH: QVQLQQWGAGLLKPSETLSLTCAVYGGSFSGYYWNWIRQPPGKGLEWIGEINHSGSTNYNPSLKSRVTILVDTSKNQFSLKLSSVTAADTAVYYCARNLYNWNLDSWGQGTLVTVSS
VL: DIQMTQSPSSLSASVGDRVTITCRASQGIRNDLGWYQQKPGRAPKRLIYVASSLQSGVPSRFSGSGSGTEFTLTISSLQPEDFATYYCLQHNSYPRTFGQGTKVEIK
Consider B3, for which the concentration for a half-maximal effect (EC50) in assay [1] was determined as 1.49 nM; in assay [5] it was 0.33 nM; in assay [6] it was 0.38 nM. Further, the Max is 279 in assay [1], 987 in assay [5] and 1130 in assay [6]. Further, the Kd was found to be 498 nM in assay [2], 1030 nM in assay [3] and 24 nM in assay [4]. For the same molecule, the values for the koff in assay [2], in assay [3] and in assay [4] were 0.0498 s⁻¹, 0.00252 s⁻¹ and 0.00208 s⁻¹, respectively. The on-rate constant (kon) in assay [2] worked out at 100000 M⁻¹ s⁻¹; in assay [3] it was 2460 M⁻¹ s⁻¹; in assay [4], 85900 M⁻¹ s⁻¹.

B4: ZY0EQD-E02 human IgG1 (antibody, V domains shown)
VH: QVQLQQWGAGLLKPSETLSLTCAVYGGSFSGYYWNWIRQPPGKGLEWIGEINHSGSTSYNPSLKSRVTISVDTSKNQFSLKLSSVTAADTAVYYCARVLYNWNVDSWGQGTLVTVSS
VL: DIQMTQSPSSLSASVGDRVTITCRASQDIRNDVGWYQQKPGKAPKRLIYAASRLQSGVPSRFSGSGSGTEFTLTISSLQPEDFATYYCLQHNSYPRTFGQGTKVEIK
Regarding B4, the EC50 in assay [1] turned out to be 1.4 nM; in assay [5], 0.28 nM; in assay [6], 0.35 nM. The figures for the Max in assay [1], in assay [5] and in assay [6] were 167, 1130 and 1240, respectively. Further, the equilibrium dissociation constant (Kd) in assay [2] came out at 625 nM; in assay [3], 834 nM; in assay [4] it was 14.9 nM. The off-rate constant (koff) in assay [2] was found to be 0.213 s⁻¹; in assay [3] it was 0.00349 s⁻¹; in assay [4] it was 0.00321 s⁻¹. Also, the figures for the kon in assay [2], in assay [3] and in assay [4] were 341000 M⁻¹ s⁻¹, 4190 M⁻¹ s⁻¹ and 216000 M⁻¹ s⁻¹, respectively.

B5: ZY0EP0-C07 human IgG1 (antibody, V domains shown)
VH: QVQLVESGGVLVKPGGSLRLSCAASGFTLSDYYMSWIRQAPGMGLEWVSYISSSGSTIYYTDSVKGRFTISRDSAKNSLYLQMNSLRAEDTAVYYCARDGVGFDYWGQGTLVTVSS
VL: EIVLTQSPGTLSLFPGERATLSCRASQSVSSSYLAWYQQKPGQSPRLLIYAASSRATGIPDRFSGSGSGTDFTLTISRLEPEDFAVYYCQQYGSSPLYTFGQGTKLEIK
notes: also called ZY0EPO-C07
In the case of B5, in assay [1], the 50% effective concentration (EC50) is 0.18 nM and the Max came to 1320. In assay [2], this molecule displayed a Kd of 9 nM, a koff of 0.000551 s⁻¹ and a kon of 60200 M⁻¹ s⁻¹. In assay [4], the Kd worked out at 7 nM, the koff was determined as 0.000363 s⁻¹ and the kon came to 48800 M⁻¹ s⁻¹. Further, in assay [5], the EC50 was determined as 0.33 nM and the Max is 946. In assay [6], this molecule returned a 50% effective concentration (EC50) of 0.3 nM and a Max of 1220.
